For assay [1], the target named is HLA-A*02:01. Kind of assay: IEDB peptide-MHC binding, purified MHC/competitive/radioactivity; filed as Kd, often an IC50 or EC50 that approximates it; ≥ and ≤ were set here for values at or beyond the usual limits of such assays.
Another assay has as its target HLA-A*30:01. The assay is described as above. The note with it: source organism: Dengue virus 4 Philippines/H241/1956.
The target in the next assay is HLA-B*08:01. The assay is described as above.
A further assay concerns the target HLA-A*02:17. Described as above.
The target of the next assay is HLA-A*02:03. The assay is described as above.
The next assay deals with HLA-B*46:01. Kind of assay: IEDB peptide-MHC binding, purified MHC/competitive/fluorescence; filed as Kd, often an IC50 or EC50 that approximates it; ≥ and ≤ were set here for values at or beyond the usual limits of such assays.
In assay [2] the target is HLA-A*69:01. The assay is described as above.
Assay [3] addresses HLA-B*18:01. The assay is described as above.
The next assay concerns the target HLA-B*39:01. The description is as above.
A further assay addresses HLA-B*57:01. Described as above.
Assay [4] addresses HLA-A*02:01. The assay is described as above.
The target in assay [5] is HLA-B*51:01. The assay is described as above.
Assay [6] concerns the target HLA-B*15:01. The assay is described as above.
Another assay has as its target HLA-B*15:17. The description is as above.
The target of the next assay is HLA-A*26:01. Described as above.
A further assay concerns the target HLA-B*27:03. The description is as above. To be noted: source organism: Homo sapiens.
A further assay has as its target HLA-A*11:01. Kind of assay: IEDB peptide-MHC binding, purified MHC/competitive/fluorescence; ≥ and ≤ were set here for values at or beyond the usual limits of such assays.
In assay [7] the target is HLA-A*02:01. The description is as above.
In assay [8] the target is HLA-A*03:01. Kind of assay: IEDB peptide-MHC binding, purified MHC/competitive/fluorescence; filed as Kd, often an IC50 or EC50 that approximates it; ≥ and ≤ were set here for values at or beyond the usual limits of such assays.
A further assay concerns the target HLA-A*02:06. Kind of assay: IEDB peptide-MHC binding, purified MHC/competitive/radioactivity; filed as Kd, often an IC50 or EC50 that approximates it; ≥ and ≤ were set here for values at or beyond the usual limits of such assays.
Assay [9] concerns the target HLA-B*51:01. Described as above. To be noted: source organism: Dengue virus 2 Peru/IQT2913/1996.
The target in another assay is HLA-A*24:02. Kind of assay: IEDB peptide-MHC binding, purified MHC/competitive/fluorescence; ≥ and ≤ were set here for values at or beyond the usual limits of such assays. To be noted: source organism: Variola virus.
For the next assay, the target named is HLA-B*27:05. Kind of assay: IEDB peptide-MHC binding, purified MHC/direct/fluorescence; filed as Kd, often an IC50 or EC50 that approximates it; ≥ and ≤ were set here for values at or beyond the usual limits of such assays. The note with it: source organism: Reston ebolavirus - Reston.
The target of the next assay is HLA-A*33:01. Kind of assay: IEDB peptide-MHC binding, purified MHC/competitive/radioactivity; filed as Kd, often an IC50 or EC50 that approximates it; ≥ and ≤ were set here for values at or beyond the usual limits of such assays. The note with it: source organism: Vaccinia virus WR.
The next assay concerns the target HLA-A*31:01. The assay is described as above. To be noted: source organism: Vaccinia virus WR.
In the next assay the target is HLA-A*68:01. The description is as above. The note with it: source organism: Vaccinia virus WR.
Assay [10] concerns the target HLA-A*03:01. The assay is described as above. The note with it: source organism: Vaccinia virus WR.
Assay [11] concerns the target HLA-A*69:01. Kind of assay: IEDB peptide-MHC binding, purified MHC/direct/fluorescence; filed as Kd, often an IC50 or EC50 that approximates it; ≥ and ≤ were set here for values at or beyond the usual limits of such assays. To be noted: source organism: Ebola virus - Mayinga, Zaire, 1976.
Assay [12] has as its target HLA-A*02:01. The assay is described as above. To be noted: source organism: Ebola virus - Mayinga, Zaire, 1976.
Another assay has as its target HLA-A*02:12. The assay is described as above. The note with it: source organism: Ravn virus - Ravn, Kenya, 1987.
The target of assay [13] is HLA-B*18:01. The assay is described as above. The note with it: source organism: Influenza A virus (A/camel/Mongolia/1982(H1N1)).
In another assay the target is HLA-B*44:02. The description is as above. To be noted: source organism: Influenza A virus (A/camel/Mongolia/1982(H1N1)).
Another assay concerns the target HLA-B*40:01. The assay is described as above. The note with it: source organism: Influenza A virus (A/camel/Mongolia/1982(H1N1)).
The target in assay [14] is HLA-B*15:01. Kind of assay: IEDB peptide-MHC binding, purified MHC/competitive/radioactivity; filed as Kd, often an IC50 or EC50 that approximates it; ≥ and ≤ were set here for values at or beyond the usual limits of such assays. To be noted: source organism: Dengue virus 3 China/80-2/1980.
Where [15] appears, read: source organism: Dengue virus 4 Philippines/H241/1956.
Where [16] appears, read: source organism: Dengue virus 1 Singapore/S275/1990.
Setting [17] is: source organism: Vaccinia virus.
Setting [18] is: source organism: Dengue virus 1 Brazil/97-11/1997.
[19] abbreviates: source organism: Dengue virus 2 Jamaica/1409/1983.
Setting [20] is: source organism: Dengue virus 2 Thailand/NGS-C/1944.
Where [21] appears, read: source organism: Dengue virus 4 Dominica/814669/1981.
Setting [22] is: source organism: Zaire ebolavirus.
[23] abbreviates: source organism: Reston ebolavirus - Reston (1989).
Where [24] appears, read: source organism: Sudan ebolavirus.
Where [25] appears, read: source organism: Dengue virus 3 China/80-2/1980.

One may read the Kd as a measure of binding affinity in units of concentration. As a reminder, the IC50 is the midpoint of a concentration-inhibition curve.

A value given as a limit tells only on which side of the number the result lay.

Turning to KMKKKTWLV, the Kd in the assay with HLA-A*02:01 [1] (setting [15]) was determined as 66.6 nM; in the assay with HLA-A*30:01 it was 17.2 nM; with HLA-B*08:01 (setting [15]) it was 93.5 nM; with HLA-A*02:17 (setting [15]) it was 65 nM; with HLA-A*02:03 (setting [15]), 31 nM.
For the sequence GLLCVMASSV, the Kd was determined as 11.4 nM with HLA-A*02:01 [1] (setting [16]), 151 nM with HLA-A*02:17 (setting [16]) and 26 nM with HLA-A*02:03 (setting [16]).
YSDNEMLTH: the equilibrium dissociation constant (Kd) in the assay with HLA-B*46:01 (source organism: Homo sapiens), in the assay with HLA-A*69:01 [2] (source organism: Homo sapiens), in the assay with HLA-B*18:01 [3] (source organism: Homo sapiens), in the assay with HLA-B*39:01 (source organism: Homo sapiens), with HLA-B*57:01 (source organism: Homo sapiens) and in the assay with HLA-A*02:01 [4] (source organism: Homo sapiens) was no less than 20000 nM each time. Further, the dissociation constant (Kd) with HLA-B*51:01 [5] (source organism: Homo sapiens), with HLA-B*15:01 [6] (source organism: Homo sapiens), with HLA-B*15:17 (source organism: Homo sapiens), in the assay with HLA-A*26:01 (source organism: Homo sapiens) and with HLA-B*27:03 was no less than 20000 nM in each case.
In the case of GVVVSTNRL, the results for the 50% inhibitory concentration (IC50) with HLA-A*11:01 (setting [17]) and with HLA-A*02:01 [7] (setting [17]) were no less than 80000 nM and 9530 nM, respectively.
Consider RLCRFRKSK, for which the dissociation constant (Kd) with HLA-A*03:01 [8] (source organism: Yersinia pestis Nepal516) was determined as 121 nM.
For LLMLLPTAL, the equilibrium dissociation constant (Kd) in the assay with HLA-A*02:01 [1] (setting [16]) was 7.54 nM; with HLA-B*08:01 (setting [18]), 6.42 nM; with HLA-A*02:17 (setting [16]) it was 11.6 nM; with HLA-A*02:03 (setting [18]) it was 31 nM.
WLVHRQWFL: the dissociation constant Kd in the assay with HLA-A*02:01 [1] (setting [19]) stood at 2.4 nM; in the assay with HLA-A*02:06 (setting [19]), 156 nM; in the assay with HLA-B*08:01 (setting [19]), 8.69 nM; with HLA-A*02:17 (setting [19]) it was 61.8 nM.
Regarding FLFLMSGRGI, the equilibrium dissociation constant (Kd) is 4.21 nM with HLA-A*02:01 [1] (setting [20]), 7910 nM with HLA-B*51:01 [9], 726 nM with HLA-A*02:17 (setting [20]) and 6.33 nM with HLA-A*02:03 (source organism: Dengue virus 2 Peru/IQT2913/1996).
KIEAPLLLH showed an equilibrium dissociation constant (Kd) with HLA-A*03:01 [8] (source organism: Escherichia coli str. K-12 substr. MG1655) of 116 nM.
For the sequence ALPVYLMTL, the values for the Kd with HLA-A*02:01 [1] (setting [15]) and in the assay with HLA-A*02:17 (setting [15]) were 10.9 nM and 1.77 nM, respectively.
As for VLMMRTTWA, the dissociation constant Kd in the assay with HLA-A*02:01 [1] (setting [19]) is 34.6 nM; with HLA-B*08:01 (setting [19]), 12.8 nM; with HLA-A*02:17 (setting [19]), 15200 nM; with HLA-A*02:03 (setting [19]) it was 13.5 nM.
With TLATGPILTL, the figures for the dissociation constant (Kd) with HLA-A*02:01 [1] (setting [21]), with HLA-A*02:17 (setting [21]) and in the assay with HLA-A*02:03 (setting [21]) were 65.4 nM, 687 nM and 12.1 nM, respectively.
On to DIIIAVARK, for which the concentration for half-maximal inhibition (IC50) in the assay with HLA-A*11:01 (source organism: Variola virus) is no less than 177000 nM; in the assay with HLA-A*24:02, 61600 nM.
In the assay with HLA-A*11:01 (setting [22]), LGLDDQEKK registered an IC50 of 30700 nM.
As for GRYNLVPPK, the Kd with HLA-B*46:01 (setting [23]), with HLA-A*69:01 [2] (setting [23]), with HLA-B*18:01 [3] (setting [23]), in the assay with HLA-B*39:01 (setting [23]), with HLA-B*57:01 (setting [23]) and with HLA-A*02:01 [4] (setting [23]) was no less than 20000 nM throughout. Also, the Kd was no less than 20000 nM in the assay with HLA-B*51:01 [5] (setting [23]); no less than 20000 nM with HLA-B*15:01 [6] (setting [23]); no less than 20000 nM with HLA-B*15:17 (setting [23]); no less than 20000 nM with HLA-A*26:01 (setting [23]); 97.6 nM with HLA-B*27:05.
In the case of ETITEKTFK, the dissociation constant (Kd) with HLA-A*33:01 was determined as 2.6 nM; with HLA-A*31:01 it was 823 nM; with HLA-A*68:01, 12.1 nM; in the assay with HLA-A*03:01 [10], 3060 nM. This sequence also returned an IC50 in the assay with HLA-A*11:01 (source organism: Vaccinia virus Copenhagen) of 5570 nM.
Regarding MLLILCTSQI, the results for the Kd in the assay with HLA-A*02:01 [1] (setting [16]) and with HLA-A*02:17 (setting [16]) were 75.8 nM and 182 nM, respectively.
On to LLADGLAKA, for which the Kd with HLA-A*69:01 [11] is 848 nM; in the assay with HLA-A*02:01 [12] it was 25.7 nM; in the assay with HLA-A*02:12, 4 nM.
For VLVGVVTLYL, the results for the Kd in the assay with HLA-A*02:01 [1] (setting [19]) and in the assay with HLA-A*02:17 (setting [19]) were 62 nM and 1570 nM, respectively.
Consider VILAGPIPV, for which the results for the Kd with HLA-A*02:01 [1] (setting [15]), with HLA-A*02:06 (setting [15]) and with HLA-A*02:17 (setting [15]) were 6.74 nM, 132 nM and 995 nM, respectively.
For MEYDAVATT, the Kd is no more than 1 nM with HLA-B*18:01 [13], no less than 20000 nM in the assay with HLA-B*44:02 and 706 nM with HLA-B*40:01.
NCYNLEIKK displayed a concentration for half-maximal inhibition (IC50) in the assay with HLA-A*11:01 (setting [24]) of no less than 72400 nM.
As to ILAKAIFKL, the Kd in the assay with HLA-A*02:01 [1] (setting [15]) was found to be 14 nM; with HLA-A*02:17 (setting [15]), 37.9 nM.
Sequence TLQVSDVDK had an IC50 with HLA-A*11:01 (setting [22]) of 41900 nM.
LMMMLPATL: the equilibrium dissociation constant (Kd) with HLA-B*08:01 (setting [25]) stood at 18.7 nM; with HLA-B*15:01 [14], 87.1 nM; in the assay with HLA-A*02:17 (setting [25]), 227 nM; with HLA-A*02:03 (setting [25]), 6.62 nM.
In the case of MMMLPATLA, the Kd was 27.6 nM with HLA-A*02:01 [1] (setting [25]), 106 nM in the assay with HLA-A*02:17 (setting [25]) and 28.6 nM with HLA-A*02:03 (setting [25]).
On to SMPLGVVTN, for which the IC50 with HLA-A*11:01 (setting [24]) is no less than 163000 nM; in the assay with HLA-A*02:01 [7] (setting [24]) it was no less than 115000 nM.
Take SLCLMMMLPA: the Kd was 65.7 nM in the assay with HLA-A*02:01 [1] (setting [25]) and 11700 nM with HLA-A*02:17 (setting [25]).

Values taken from the Immune Epitope Database (IEDB).
